Assay: soluble on expression in E. coli; label from the status in PepcDB or PDB records

| Sequence | soluble on expression in E. coli |
| --- | --- |
| MANQKKDSLSTLFSEEVHGPFVTFLFNTHVAHQNVEKDSLVLKNFAKAAKTRFEKKFPEEKWSVFQEKIDALLADASFWRNGTASVSIILSPENTFVQRLDVPVDDQYYVDTIPYLLGLVKDKQFNYHYYLLALNRDSMKLYKVDHTTVTPVELPKDAPTDVVTALGDELTGGNLNFSTQGSSNGSKEGVAYHSINTKDKEVEIDWVNYYQAVDTFLKDQLDNPEKLPLYLYALPENQTLFKKIAKNPYYDCSISVAASPAQATIQDIRSASEKIAAELTEKETASYNKLLDRKFLDQFTDISPAAADGKISHLFIATSLFVTENNEMSSEEYDRRKLLNTIAYQVIQNGGQVFVLDQKAAPDEKSLAAILRY | not soluble |
| MANRLRTGIDVLDRKLDGGIPAGSIVVLSAQPASQAELFLYELTATRGTLWLSLDRTAESVIASIEQTPANTGDPTVRHISGEAPLDNAGKLVSALPETSNLIVDPLDVLEAQEPHSRFRAFMNDLQNHIVNTGSLAIVHCLDGRDVPPLRDTTEHFADVVFQLNTTTNGDEVENRLAIPKFRGGRAPTDIIKLNLVEEVSIDTSRDIALEHHHHHH | not soluble |
| MANVESLYKELTAEWSKRPPNTVKCGQLLDQLKVALVKMAFLPTDGNDAQSSKKQLILARSVLEVAVEHSVLSKDLLAFERYMAQLKCYYYDYAKIIGESESKYKLLGLNLLYLLSGNRVSDFHTELELLSVDVIQHNQFIRPILALEQYIMEGRYNKIFQAKSTVPVEVYSYFMDLLLETVRDEIGACIEKSYDKISAKDAAKRLNLRVPDEIKAFGAKRQWKLEASGDYSFTDRSVKPKELLPSEELAEQVLSYARDLEMIV | not soluble |
| MAPGTKKKSDMAKFTFYKDRLMTFKNFEYDRDPDAKCTSQAVAQAGFYCTGPQSGKCAFCNKELDFDPEDDPWYEHTKRDEPCEFVRIGKLDDSELTINDTVRLSQTAMIMTKLFEHEMMINNLSNHSSSDALFDQLKKVPNTASTTKSNSRRGK | not soluble |
| MAPHGDGLSDIEEPEVDAQSEILRPISSVVFVIAMQAEALPLVNKFGLSETTDSPLGKGLPWVLYHGVHKDLRINVVCPGRDAALGIDSVGTVPASLITFASIQALKPDIIINAGTCGGFKVKGANIGDVFLVSDVVFHDRRIPIPMFDLYGVGLRQAFSTPNLLKELNLKIGRLSTGDSLDMSTQDETLIIANDATLKDMEGAAVAYVADLLKIPVVFLKAVTDLVDGDKPTAEEFLQNLTVVTAALEGTATKVINFINGRNLSDL | soluble |
| MAPITVGDVVPDGTISFFDENDQLQTVSVHSIAAADGFLDFDLRIGVFGFSEVSMSHVPGFIGKAEELKSKGIDEIICFSVNDPFVMKAWGKTYQENKHVKFVADGSGEYTHLLGLELDLKDKGLGIRSRRFALLLDNLKVTVANVENGGEFTVSSAEDILKALLEHHHHHH | not soluble |
| MAPKVFYISDGTAITAEVFGHAVLSQFPLEFESLTIPFVETLAKAENVKRQINDCFITTGERPLVFHSIVKPEIRDIIYSSEGLDYDFLNTFVAPLEQHLGVSASPVLHRTHGKANQGYEARIDAINFAMDNDDGQTMKHMDQADLILLGVSRCGKTPSSLYLSMQFGIKAANYPFTEDDMDNLKLPEALKRNKKKLFGLTIDPVRLHEIRQSRMENSRYSSLKQCRLEVKEVEMMFKRERIPYIDTTNHSVEEIATKILDVTGLERHMFMAGDPLEHHHHHH | soluble |
| MAPPTTIRTRDQALAPLATLDSQTNCRLKELVQWECQFKGAEYVCSPFKRLFEHCIAPDKSATNYEVTDTYTNS | not soluble |
| MAPSTPLLTVRGSEGLYMVNGPPHFTESTVFPRESGKNCKVCIFSKDGTLFAWGNGEKVNIISVTNKGLLHSFDLLKAVCLEFSPKNTVLATWQPYTTSKDGTAGIPNLQLYDVKTGTCLKSFIQKKMQNWCPSWSEDETLCARNVNNEVHFFENNNFNTIANKLHLQKINDFVLSPGPQPYKVAVYVPGSKGAPSFVRLYQYPNFAGPHAALANKSFFKADKVTMLWNKKATAVLVIASTDVDKTGASYYGEQTLHYIATNGESAVVQLPKNGPIYDVVWNSSSTEFCAVYGFMPAKATIFNLKCDPVFDFGTGPRNAAYYSPHGHILVLAGFGNLRGQMEVWDVKNYKLISKPVASDSTYFAWCPDGEHILTATCAPRLRVNNGYKIWHYTGSILHKYDVPSNAELWQVSWQPFLDGIFPAKTITYQAVPSEVPNEEPKVATAYRPPALRNKPITNSKLHEEEPPQNMKPQSGNDKPLSKTALKNQRKHEAKKAAKQEARSDKSPDLAPTPAPQSTPRNTVSQSISGDPEIDKKIKNLKKKLKAIEQLKEQAATGKQLEKNQLEKIQKETALLQELEDLKLGI | soluble |

Source: the DeepSol protein solubility set
